Results on one substance are retold here after patent US20050032695A1.

Common to all, as to assay: cell-based or functional assay
The target in test [1] is adenylyl cyclase (AC) in rat spinal cord lysates/membranes (rat).
Test [2] concerns the target adenylyl cyclase (AC) in rat dorsal root ganglia (DRG) lysates (rat).
Test [3] deals with adenylyl cyclase (AC) in rat spinal cord lysates/membranes (rat). This is another data set of the same source.

Where two headings read alike, the source gives them in different places.

In test [1], “PAM (Protein Associated with Myc), full length, purified from HeLa cells (from UniProt O75592 1-4678)” registered an inhibition of Gαs-stimulated AC activity, spinal cord lysates of animals treated for 1 hour with formalin, 30 nM PAM of 25%; an inhibition of Gαs-stimulated AC activity, spinal cord lysates of control animals, 30 nM PAM of 49%; an inhibition of Gαs-stimulated AC activity, spinal cord lysates of rats 96 hours after zymosan injection, 30 nM PAM of 70%; an inhibition of Gαs-stimulated AC activity, spinal cord preparations of zymosan-treated animals of 75%. Moreover, in test [2], the inhibition of Gαs-stimulated AC activity, DRG lysates, 30 nM PAM was 32%. Further, the inhibition of Gαs-stimulated AC activity, spinal cord lysates of control animals, 30 nM PAM in test [3] is 50%.
